The target in test [1] is human CD3 on the cell surface (Jurkat cells) (human) (UniProt P07766). Nature of the test: flow cytometry on Hut78 cells (target on Hut78 not given), antibody 10 ug/ml. (In general: A flow cytometer gives signals particle by particle.)
The target is the same in test [2]. Nature of the test: flow cytometry on Jurkat cells, antibody 10 ug/ml.
Test [3] has as its target human CD20 on the cell surface (Raji, Ramos, Namalwa cells) (human) (UniProt P11836). Briefly: flow cytometry on Raji cells, antibody 10 ug/ml.
Test [4] shares this target. Briefly: flow cytometry on Ramos cells, antibody 10 ug/ml.
In test [5] the target is PD-1.his (Homo sapiens (Human)) (UniProt Q15116). Nature of the test: ELISA, antigen coated at 2 ug/mL, antibody 10 ug/ml; * specific binding. For orientation: In an ELISA, binding on a coated surface is turned into a signal by an enzyme label.
In test [6] the target is human CD20 on the cell surface (Raji, Ramos, Namalwa cells) (human) (UniProt P11836). Nature of the test: flow cytometry on Raji cells, secondary antibody alone.
For test [7] the target is unchanged. Briefly: flow cytometry on Ramos cells, secondary antibody alone.
The target in test [8] is human CD3 on the cell surface (Jurkat cells) (human) (UniProt P07766). Nature of the test: flow cytometry on Hut78 cells (target on Hut78 not given), secondary antibody alone.
Test [9] has the same target. Nature of the test: flow cytometry on Jurkat cells, secondary antibody alone.
Test [10] shares this target. Nature of the test: FACS affinity on Jurkat cells, FITC bead quantitation. More on the design: Bmax: unit not given here.
Test [11] shares this target. Nature of the test: flow cytometry on Jurkat cells.
In test [12] the target is human CD20 on the cell surface (Raji, Ramos, Namalwa cells) (human) (UniProt P11836). Briefly: FACS affinity on Ramos cells, FITC bead quantitation.
Test [13] has the same target. Briefly: cell-based or functional assay.
The target is the same in test [14]. Briefly: flow cytometry on Raji cells.

One may read the Kd as the constant that tells how readily two partners part at equilibrium. What is called EC50 is the midpoint of the concentration-response curve.

Chain of UniProt P07766 (P07766 23-207, chain 1 of 3): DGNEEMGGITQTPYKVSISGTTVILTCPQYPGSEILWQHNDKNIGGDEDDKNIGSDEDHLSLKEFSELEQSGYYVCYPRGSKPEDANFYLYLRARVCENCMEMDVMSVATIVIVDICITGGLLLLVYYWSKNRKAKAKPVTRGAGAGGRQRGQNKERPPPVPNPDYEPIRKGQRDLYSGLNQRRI
Chain of UniProt P07766 (P04234 22-171, chain 2 of 3, further chain): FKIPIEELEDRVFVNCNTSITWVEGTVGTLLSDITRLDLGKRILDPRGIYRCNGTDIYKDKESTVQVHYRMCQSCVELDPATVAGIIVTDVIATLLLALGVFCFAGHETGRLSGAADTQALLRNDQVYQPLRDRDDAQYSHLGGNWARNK
Chain of UniProt P07766 (P09693 23-182, chain 3 of 3, further chain): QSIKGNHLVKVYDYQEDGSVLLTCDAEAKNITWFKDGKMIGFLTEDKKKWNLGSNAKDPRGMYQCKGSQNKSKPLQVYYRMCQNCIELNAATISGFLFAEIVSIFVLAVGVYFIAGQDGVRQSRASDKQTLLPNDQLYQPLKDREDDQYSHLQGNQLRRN
Chain of UniProt P11836 (P11836 whole entry): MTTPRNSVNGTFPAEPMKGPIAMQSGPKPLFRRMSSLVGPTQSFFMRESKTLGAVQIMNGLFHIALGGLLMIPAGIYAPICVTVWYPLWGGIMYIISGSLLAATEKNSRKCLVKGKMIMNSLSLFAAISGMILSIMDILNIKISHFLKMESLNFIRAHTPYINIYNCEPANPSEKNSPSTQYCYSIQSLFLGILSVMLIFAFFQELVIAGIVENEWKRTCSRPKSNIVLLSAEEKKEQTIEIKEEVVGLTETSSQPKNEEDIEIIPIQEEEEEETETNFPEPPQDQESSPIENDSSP
Chain of UniProt Q15116 (Q15116 25-170 limits assumed): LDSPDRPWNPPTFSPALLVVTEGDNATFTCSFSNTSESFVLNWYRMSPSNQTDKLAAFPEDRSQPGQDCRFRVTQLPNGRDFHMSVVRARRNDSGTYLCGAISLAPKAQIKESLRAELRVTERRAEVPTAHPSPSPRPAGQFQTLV

Human IgG4K control (antibody): the FACS MFI in test [1] came out at 61; in test [2], 25; in test [3] it was 92; in test [4], 68. In [5], this substance showed an absorbance at 450 nm of 3.87.

In the case of “goat anti-human IgG Fc-PE (Jackson, 109-115-098) (antibody)”, the FACS MFI in [6] is 67; in test [7] it was 65; in test [8], 28; in [9], 21.

In [10], BMK4 (REGN1979) (bispecific antibody) had a Bmax of 1.1e-10 and a Kd of 30 nM. The same substance displayed a concentration for a half-maximal effect (EC50) in [11] of 8.8 nM. In [12], this substance gave a Bmax of 6.8e-10 and a Kd of 67 nM. Moreover, in test [13], the EC50 of T cell activation (CD25 expression), CD4+ cells, in the presence of Raji cells stood at 0.006 nM; the EC50 of T cell activation (CD25 expression), CD8+ cells, in the presence of Raji cells turned out to be 0.0183 nM; the EC50 of bispecific antibody mediated cytotoxicity, NAMALWA, 4 hours FACS based cytotoxicity assay with CD8+ T cells was 0.0318 nM; the EC50 of bispecific antibody mediated cytotoxicity, NAMALWA, two hour calcein release assay with CD8+ T cells is 0.026 nM. In addition, in test [13], the EC50 of bispecific antibody mediated cytotoxicity, Raji, 4 hours FACS based cytotoxicity assay with CD8+ T cells was 0.00312 nM; the EC50 of bispecific antibody mediated cytotoxicity, Raji, two hour calcein release assay with CD8+ T cells was 0.00269 nM; the EC50 of bispecific antibody mediated cytotoxicity, Ramos, two hour calcein release assay with CD8+ T cells is 0.00149 nM. For the same substance, the concentration giving a half-maximal response (EC50) in test [14] is 41.1 nM.

As to Human IgG4L control (antibody), the FACS MFI in [1] was determined as 38; in test [2], 22; in test [4] it was 63.

Source of the values: patent US20210380710A1.
